± gives the standard deviation of the averaged measurements.
Legend:
[1] = test system: VchCAST RNA-guided transposition machinery (E. coli BL21(DE3) host, lacZ target); assay: relative integration efficiency (T-LR orientation) vs wild-type transposon end (log2 (normalized fold change)); transposon end mutated: right end (5 bp flank + 75 bp right end); higher = more efficient transposition
Method in brief: (§1)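 Pools of 1549 left-end or 1849 right-end barcoded transposon variants were cloned into a pUC57 mini-transposon donor and co-transformed into E. coli BL21(DE3) with a T7-driven effector plasmid carrying a CRISPR array, tniQ-cas8-cas7-cas6 and tnsA-tnsB-tnsC. Plating used 0.1 mM IPTG at 37°C for 18 h, and input plasmids and genomic integration junctions were PCR-amplified for Illumina sequencing, with two biological output replicates and four reference barcodes. Relative integration efficiency is the log-transformed fold change of output over input barcode abundance, normalised to the reference barcodes.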

[2] = test system: VchCAST RNA-guided transposition machinery (E. coli BL21(DE3) host, lacZ target); assay: relative integration efficiency (T-RL orientation) vs wild-type transposon end (log2 (normalized fold change)); transposon end mutated: right end (5 bp flank + 75 bp right end); higher = more efficient transposition
Method in brief: as §1

Sequence	relative integration efficiency (log2) [1]	relative integration efficiency (log2) [2]
ACATTTGTTGATACACCCATAAATTGATATTGCCAACCATAAAATGATAATTATCACAACCATAAAGTGATATTTACTCTGATCATAGTCAGACCAACATTGCTACGACCCGTATTCGCACCGACAC	-0.327 ± 0.1	-0.59 ± 0.12
ACATTTGTTGATACACCCATAAATTGATATTGCCAACCATAAAATGATAATTATCACAACCATAAGTTGATATTTTCTCTGATCATAGTCAGACCAACATTGCTACGACCCGTATTCGCACCGACAC	-0.175 ± 0.71	-0.46 ± 0.23
ACATTTGTTGATACACCCATAAATTGATATTGCCAACCATAAAATGATAATTATCACAACCATATATTGATATCTCCTCTGATCATAGTCAGACCAACATTGCTACGACCCGTATTCGCACCGACAC	-0.207 ± 0.002	-0.961 ± 0.18
ACATTTGTTGATACACCCATAAATTGATATTGCCAACCATAAAATGATAATTATCACACCCATAAATTGATAATTACTCTGATCATAGTCAGACCAACATTGCTACGACCCGTATTCGCACCGACAC	-0.568 ± 0.82	-0.642 ± 0.2
ACATTTGTTGATACACCCATAAATTGATATTGCCAACCATAAAATGATAATTATCACACCCATAAATTGATATTGCCTCTGATCATAGTCAGACCAACATTGCTACGACCCGTATTCGCACCGACAC	-0.203 ± 0.43	-0.863 ± 0.071
ACATTTGTTGATACACCCATAAATTGATATTGCCAACCATAAAATGATAATTATCAGTGGGTATTTAACTATAACGCTCTGATCATAGTCAGACCAACATTGCTACGACCCGTATTCGCACCGACAC	2.28 ± 0.096	-1.21 ± 0.35
ACATTTGTTGATACACCCATAAATTGATATTGCCAACCATAAAGTGATATTTATCACAACCATAAAATGATAATTACTCTGATCATAGTCAGACCAACATTGCTACGACCCGTATTCGCACCGACAC	-0.362 ± 0.13	-0.499 ± 0.21
ACATTTGTTGATACACCCATAAATTGATATTGCCAACCATAAAGTGATATTTATCACAACCATAAAGTGATATTTACTCTGATCATAGTCAGACCAACATTGCTACGACCCGTATTCGCACCGACAC	-0.426 ± 0.4	-0.684 ± 0.13
ACATTTGTTGATACACCCATAAATTGATATTGCCAACCATAAAGTGATATTTATCACAACCATAAGTTGATATTTTCTCTGATCATAGTCAGACCAACATTGCTACGACCCGTATTCGCACCGACAC	-0.0145 ± 0.0084	-0.617 ± 0.14
ACATTTGTTGATACACCCATAAATTGATATTGCCAACCATAAAGTGATATTTATCACAACCATATATTGATATCTCCTCTGATCATAGTCAGACCAACATTGCTACGACCCGTATTCGCACCGACAC	0.117 ± 0.34	-0.78 ± 0.17
ACATTTGTTGATACACCCATAAATTGATATTGCCAACCATAAAGTGATATTTATCACACCCATAAATTGATAATTACTCTGATCATAGTCAGACCAACATTGCTACGACCCGTATTCGCACCGACAC	-0.215 ± 0.15	-0.649 ± 0.14
ACATTTGTTGATACACCCATAAATTGATATTGCCAACCATAAAGTGATATTTATCACACCCATAAATTGATATTGCCTCTGATCATAGTCAGACCAACATTGCTACGACCCGTATTCGCACCGACAC	-0.415 ± 0.17	-0.74 ± 0.11
ACATTTGTTGATACACCCATAAATTGATATTGCCAACCATAAAGTGATATTTATCAGTGGGTATTTAACTATAACGCTCTGATCATAGTCAGACCAACATTGCTACGACCCGTATTCGCACCGACAC	2.341 ± 0.0029	-1.12 ± 0.16
ACATTTGTTGATACACCCATAAATTGATATTGCCAACCATAAGTTGATATTTTTCACAACCATAAAATGATAATTACTCTGATCATAGTCAGACCAACATTGCTACGACCCGTATTCGCACCGACAC	-0.0638 ± 0.3	-0.413 ± 0.23
ACATTTGTTGATACACCCATAAATTGATATTGCCAACCATAAGTTGATATTTTTCACAACCATAAAGTGATATTTACTCTGATCATAGTCAGACCAACATTGCTACGACCCGTATTCGCACCGACAC	-0.457 ± 0.31	-0.583 ± 0.25
ACATTTGTTGATACACCCATAAATTGATATTGCCAACCATAAGTTGATATTTTTCACAACCATAAGTTGATATTTTCTCTGATCATAGTCAGACCAACATTGCTACGACCCGTATTCGCACCGACAC	-0.197 ± 0.3	-0.695 ± 0.095
ACATTTGTTGATACACCCATAAATTGATATTGCCAACCATAAGTTGATATTTTTCACAACCATATATTGATATCTCCTCTGATCATAGTCAGACCAACATTGCTACGACCCGTATTCGCACCGACAC	0.0942 ± 0.34	-0.899 ± 0.17
ACATTTGTTGATACACCCATAAATTGATATTGCCAACCATAAGTTGATATTTTTCACACCCATAAATTGATAATTACTCTGATCATAGTCAGACCAACATTGCTACGACCCGTATTCGCACCGACAC	0.0375 ± 0.27	-0.7 ± 0.21
ACATTTGTTGATACACCCATAAATTGATATTGCCAACCATAAGTTGATATTTTTCACACCCATAAATTGATATTGCCTCTGATCATAGTCAGACCAACATTGCTACGACCCGTATTCGCACCGACAC	-0.37 ± 0.1	-0.773 ± 0.11
ACATTTGTTGATACACCCATAAATTGATATTGCCAACCATAAGTTGATATTTTTCAGTGGGTATTTAACTATAACGCTCTGATCATAGTCAGACCAACATTGCTACGACCCGTATTCGCACCGACAC	2.3 ± 0.092	-1.31 ± 0.4
ACATTTGTTGATACACCCATAAATTGATATTGCCAACCATATATTGATATCTCTCACAACCATAAAATGATAATTACTCTGATCATAGTCAGACCAACATTGCTACGACCCGTATTCGCACCGACAC	-0.955 ± 0.52	-1.22 ± 0.23
ACATTTGTTGATACACCCATAAATTGATATTGCCAACCATATATTGATATCTCTCACAACCATAAAGTGATATTTACTCTGATCATAGTCAGACCAACATTGCTACGACCCGTATTCGCACCGACAC	-0.365 ± 0.021	-1.21 ± 0.24
ACATTTGTTGATACACCCATAAATTGATATTGCCAACCATATATTGATATCTCTCACAACCATAAGTTGATATTTTCTCTGATCATAGTCAGACCAACATTGCTACGACCCGTATTCGCACCGACAC	1.12 ± 0.16	0.0747 ± 0.27
ACATTTGTTGATACACCCATAAATTGATATTGCCAACCATATATTGATATCTCTCACAACCATATATTGATATCTCCTCTGATCATAGTCAGACCAACATTGCTACGACCCGTATTCGCACCGACAC	-0.214 ± 0.48	-1.29 ± 0.34
ACATTTGTTGATACACCCATAAATTGATATTGCCAACCATATATTGATATCTCTCACACCCATAAATTGATAATTACTCTGATCATAGTCAGACCAACATTGCTACGACCCGTATTCGCACCGACAC	0.0732 ± 0.11	-1.1 ± 0.15

From the supplement of paper PMC10201428
